Results published in patent US20080182978A1, “ANTI-NGF ANTIBODIES AND METHODS USING SAME” (RINAT NEUROSCIENCE CORP, priority 2002, published 2008).
Entries after “also recorded” stand apart in the source; their conditions may differ.

Legend:
NT3 = target: T1, NT3 (Homo sapiens, UniProt P20783); test: Mouse E17/18 trigeminal neuron survival assay, NT3; assay type: cell-based; settings: saturating NT3; antibody up to 200 nM; 48 hours
T1 sequence (P20783 139-257): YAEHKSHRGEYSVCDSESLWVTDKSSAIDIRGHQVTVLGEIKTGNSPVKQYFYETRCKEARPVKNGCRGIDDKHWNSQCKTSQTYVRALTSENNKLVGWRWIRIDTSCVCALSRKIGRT
Procedure: The ability of antibody E3 to specifically block NGF activity was evaluated by measurement of the capacity of the antibody to inhibit survival of mouse E17/18 trigeminal neurons in vitro in the presence of saturating concentrations of NGF, the NGF-related neurotrophin NT3, or the NGF-unrelated neurotrophic factor, macrophage stimulating protein (MSP). The survival of mouse E17/18 trigeminal neurons is a sensitive assay to evaluate the NGF-blocking activity of anti-NGF antagonist antibodies because NGF is required to support survival of these neurons at higher concentrations than the level of NGF required to support survival of E13.5 TG neurons).
The survival assay was conducted as follows: time mated pregnant Swiss Webster female mice were euthanised by CO2 inhalation. The uterine horns were removed and the embryos (at embryonic day 17 or 18) were extracted and decapitated. The trigeminal and nodose ganglia were dissected and cleaned. The ganglia were then trypsinised, mechanically dissociated and plated at a density of 100-300 cells per well in defined, serum-free medium in 4-well plates (Greiner) coated with poly-L-ornithine and laminin.
E17/18 trigeminal neurons were grown either without added neurotrophic factors (negative control) or in the presence of saturating concentrations of human NGF (400 pM and 15 pM) (positive control); NT3 (400 pM); or MSP (600 pM). […]

[1] = test system: adjuvant-induced arthritis; test: Dose response of E3 on vocalization intensity in arthritic rats (Example 9); assay type: in vivo, rat
Procedure: The ability of E3 to produce reduction in pain in arthritic rats was further investigated by examining the dose response relationship between E3 administration and pain reduction. Rats were treated with adjuvant to induce arthritis as described above. Ten rats not injected with adjuvant were used as non-arthritic controls. Fourteen days after adjuvant injection, animals were qualified into the study based on the criteria stated above, randomized into eight groups of ten rats and tested for the intensity of their vocalization response. They were then dosed on day 14 with saline, or 0.003 mg/kg, 0.01 mg/kg, 0.03 mg/kg, 0.1 mg/kg, 0.3 mg/kg, 1 mg/kg or 5 mg/kg of E3 antibody as described above. Animals were tested for their vocalization response on days 16, 18, 20, and 24. Animals were redosed with saline or the same dose of E3 on day 18 after the vocalization testing. Animals were also weighed each day, starting at day 14. Thus, animals were dosed twice with a given dose of antibody or saline on days 14 and 18, and assessed for pain five times, on days 14, 16, 18, 20 and 24. Data are shown in Tables 20-22 and in FIGS. 20-22. The effect of treating animals with various doses of anti-NGF antibody E3 on pain induced vocalization (data shown in Table 20) was statistically analyzed by using two-way ANOVA to compare the results obtained pairwise between arthritic animals treated with vehicle with those treated with a given dose of antibody E3. […] Even at the lowest dose tested (0.003 mg/kg of E3), the difference in vocalization was significant (p<0.0001).

B1: E3: humanized, affinity matured anti-NGF antagonist antibody; variable regions SEQ ID NO:1 and 2; human IgG2a (A330P331 to S330S331), kappa (antibody, V domains shown)
VH: QVQLQESGPGLVKPSETLSLTCTVSGFSLIGYDLNWIRQPPGKGLEWIGIIWGDGTTDYNSAVKSRVTISKDTSKNQFSLKLSSVTAADTAVYYCARGGYWYATSYYFDYWGQGTLVTVS
VL: DIQMTQSPSSLSASVGDRVTITCRASQSISNNLNWYQQKPGKAPKLLIYYTSRFHSGVPSRFSGSGSGTDFTFTISSLQPEDIATYYCQQEHTLPYTFGQGTKLEIKRT
modifications: human IgG2a constant (A330S/P331S) and kappa constant missing
Q: With B1 as the molecule, how does the “survival of E17/18 trigeminal neurons promoted by NT3” value (NT3) read?
A: The value was “had no effect; also recorded: did not inhibit”.

Q: What about the “effect on pain induced vocalization vs vehicle (two-way ANOVA)” value ([1]; 0.003 to 5 mg/kg, p<0.0001) of the same molecule?
A: The value was “highly significant effect at all levels of E3 tested”.

Q: And the Vocalization intensity ([1]; E3 0.003 mg/kg on days 14+18, day 14)?
A: Its Vocalization intensity is 981.75 mV.

Q: And the Vocalization intensity ([1]; E3 0.003 mg/kg on days 14+18, day 16)?
A: Its Vocalization intensity is 825.60 mV.

Q: What about the Vocalization intensity ([1]; E3 0.003 mg/kg on days 14+18, day 18) of the same molecule?
A: Its Vocalization intensity is 427.43 mV.

Q: And the Vocalization intensity ([1]; E3 0.003 mg/kg on days 14+18, day 20)?
A: The Vocalization intensity was 448.00 mV.

Q: What about the Vocalization intensity ([1]; E3 0.003 mg/kg on days 14+18, day 24) of the same molecule?
A: Its Vocalization intensity is 724.50 mV.

Q: And the Vocalization intensity ([1]; E3 0.01 mg/kg on days 14+18, day 14)?
A: The Vocalization intensity was 1007.28 mV.

Q: And the Vocalization intensity ([1]; E3 0.01 mg/kg on days 14+18, day 16)?
A: The Vocalization intensity was 576.88 mV.

Q: What about the Vocalization intensity ([1]; E3 0.01 mg/kg on days 14+18, day 18) of the same molecule?
A: The Vocalization intensity was 334.45 mV.

Q: And the Vocalization intensity ([1]; E3 0.01 mg/kg on days 14+18, day 20)?
A: The Vocalization intensity was 313.13 mV.

Q: And the Vocalization intensity ([1]; E3 0.01 mg/kg on days 14+18, day 24)?
A: Its Vocalization intensity is 596.38 mV.

Q: And the Vocalization intensity ([1]; E3 0.03 mg/kg on days 14+18, day 14)?
A: The Vocalization intensity was 963.18 mV.

Q: And the Vocalization intensity ([1]; E3 0.03 mg/kg on days 14+18, day 16)?
A: Its Vocalization intensity is 448.43 mV.

Q: What about the Vocalization intensity ([1]; E3 0.03 mg/kg on days 14+18, day 18) of the same molecule?
A: The Vocalization intensity was 292.52 mV.

Q: And the Vocalization intensity ([1]; E3 0.03 mg/kg on days 14+18, day 20)?
A: Its Vocalization intensity is 209.48 mV.

Q: And the Vocalization intensity ([1]; E3 0.03 mg/kg on days 14+18, day 24)?
A: Its Vocalization intensity is 513.60 mV.

Q: And the Vocalization intensity ([1]; E3 0.1 mg/kg on days 14+18, day 14)?
A: Its Vocalization intensity is 1159.30 mV.

Q: What about the Vocalization intensity ([1]; E3 0.1 mg/kg on days 14+18, day 16) of the same molecule?
A: Its Vocalization intensity is 283.71 mV.

Q: What about the Vocalization intensity ([1]; E3 0.1 mg/kg on days 14+18, day 18) of the same molecule?
A: The Vocalization intensity was 262.96 mV.

Q: And the Vocalization intensity ([1]; E3 0.1 mg/kg on days 14+18, day 20)?
A: Its Vocalization intensity is 79.74 mV.

Q: And the Vocalization intensity ([1]; E3 0.1 mg/kg on days 14+18, day 24)?
A: The Vocalization intensity was 432.45 mV.

Q: What about the Vocalization intensity ([1]; E3 0.3 mg/kg on days 14+18, day 14) of the same molecule?
A: Its Vocalization intensity is 1191.58 mV.

Q: What about the Vocalization intensity ([1]; E3 0.3 mg/kg on days 14+18, day 16) of the same molecule?
A: The Vocalization intensity was 151.85 mV.

Q: What about the Vocalization intensity ([1]; E3 0.3 mg/kg on days 14+18, day 18) of the same molecule?
A: Its Vocalization intensity is 194.19 mV.

Q: What about the Vocalization intensity ([1]; E3 0.3 mg/kg on days 14+18, day 20) of the same molecule?
A: Its Vocalization intensity is 66.27 mV.

Q: What about the Vocalization intensity ([1]; E3 0.3 mg/kg on days 14+18, day 24) of the same molecule?
A: Its Vocalization intensity is 176.32 mV.

Q: What about the Vocalization intensity ([1]; E3 1.0 mg/kg on days 14+18, day 14) of the same molecule?
A: Its Vocalization intensity is 1067.00 mV.

Q: What about the Vocalization intensity ([1]; E3 1.0 mg/kg on days 14+18, day 16) of the same molecule?
A: The Vocalization intensity was 98.62 mV.

Q: What about the Vocalization intensity ([1]; E3 1.0 mg/kg on days 14+18, day 18) of the same molecule?
A: The Vocalization intensity was 174.13 mV.

Q: What about the Vocalization intensity ([1]; E3 1.0 mg/kg on days 14+18, day 20) of the same molecule?
A: The Vocalization intensity was 71.23 mV.

Q: And the Vocalization intensity ([1]; E3 1.0 mg/kg on days 14+18, day 24)?
A: The Vocalization intensity was 19.21 mV.

Q: What about the “fall of vocalization intensity” value ([1]; E3 1 mg/kg, within two days (earliest time point tested)) of the same molecule?
A: The value was 90%.

Q: And the Vocalization intensity ([1]; E3 5.0 mg/kg on days 14+18, day 14)?
A: The Vocalization intensity was 896.25 mV.

Q: What about the Vocalization intensity ([1]; E3 5.0 mg/kg on days 14+18, day 16) of the same molecule?
A: The Vocalization intensity was 79.18 mV.

Q: What about the Vocalization intensity ([1]; E3 5.0 mg/kg on days 14+18, day 18) of the same molecule?
A: Its Vocalization intensity is 200.42 mV.

Q: What about the Vocalization intensity ([1]; E3 5.0 mg/kg on days 14+18, day 20) of the same molecule?
A: Its Vocalization intensity is 63.57 mV.

Q: What about the Vocalization intensity ([1]; E3 5.0 mg/kg on days 14+18, day 24) of the same molecule?
A: The Vocalization intensity was 12.35 mV.

Q: What about the “pain relief at lowest dose” value ([1]; doses as low as 0.003 mg/kg) of the same molecule?
A: The value was “at least partial pain relief”.
